± gives the uncertainty stated by the source.
Assay: self-splicing fitness, log relative to wild type (ln ratio); higher = more splicing; Tetrahymena group I intron in knt gene, E. coli kanamycin selection, DiMSum; sequences stand for … in CUCUCU…GGAGGGAAAAGUUAUCAGGCAUGCACCUGGUAGCUAGUCUUUAAACCAAUAGAUUGCAUCGGUUUAAAAGGCAAGACCGUCAAAUUGCGGGAAAGGGGUCAACAGCCGUUCAGUACCAAGUCUCAGGGGAAACUUUGAGAUGGCCUUGCAAAGGGUAUGGUAAUAAGCUGACGGACAUGGUCCUAACCACGCAGCCAAGUCCUAAGUCAACAGAUCUUCUGUUGAUAUGGAUGCAGUUCACAGACUAAAUGUCGGUCGGGGAAGAUGUAUUCUUCUCAUAAGAUAUAGUCGGACCUCUCCUUAAUGGGAGCUAGCGGAUGAAGUGAUGCAACACUGGAGCCGCUGGGAACUAAUUUGUAUGCGAAAGUAUAUUGAUUAGUUUUGGAGUACUCGUGGUCG
Procedure, shortened: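 The eight P1ex-region nucleotides of an intron in the knt kanamycin-resistance gene on pET-22b(+) were all randomised and the library put into E. coli BL21(DE3). Six replicate transformations were grown overnight at 37°C or 30°C on LB agar with or without 25 μg/mL kanamycin, together with 100 μg/mL carbenicillin, 50 μM IPTG and 0.2% rhamnose. Colonies were pooled and amplicon-sequenced on an Illumina HiSeq 2500. Fitness from DiMSum is the error-weighted combination of wild-type-normalised replicate fold changes, kanamycin over none.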

| Sequence | self-splicing fitness (ln) (30 °C) | self-splicing fitness (ln) (37 °C) |
| --- | --- | --- |
| AAUAAGCAAUAUUACGUCUU | 0.0603 ± 0.06 | -0.0919 ± 0.075 |
| UACGAGCAAUAUUACGGACA | -3.34 ± 0.26 | -1.72 ± 0.17 |
| AAGCAGCAAUAUUACGACAG | -3.04 ± 0.13 | -1.54 ± 0.12 |
| UAACAGCAAUAUUACGCUUA | -0.77 ± 0.071 | 0.122 ± 0.1 |
| ACACAGCAAUAUUACGGGAU | -1.91 ± 0.053 | -0.774 ± 0.06 |
| UAUCAGCAAUAUUACGUGUC | -4.01 ± 0.17 | -1.79 ± 0.12 |
| UCUUAGCAAUAUUACGCGAU | -3.71 ± 0.33 | -3.67 ± 0.34 |
| AUUGAGCAAUAUUACGCGAG | -1.83 ± 0.13 | -0.958 ± 0.14 |
| UGUGAGCAAUAUUACGGAUG | -3.1 ± 0.17 | -1.52 ± 0.23 |
| UCCAAGCAAUAUUACGUUUC | -3.37 ± 0.2 | -2.76 ± 0.26 |
| GGCGAGCAAUAUUACGCGCA | -0.241 ± 0.17 | 0.253 ± 0.22 |
| AUACAGCAAUAUUACGAUAG | -2.57 ± 0.18 | -3 ± 0.34 |
| UAGAAGCAAUAUUACGCAGG | -2.7 ± 0.15 | -2.19 ± 0.15 |
| UACAAGCAAUAUUACGAUUA | -0.0989 ± 0.079 | 0.278 ± 0.085 |
| GCGCAGCAAUAUUACGCCUG | -2.75 ± 0.15 | -1.48 ± 0.15 |
| GAAUAGCAAUAUUACGUGGG | -3.86 ± 0.21 | -2.81 ± 0.19 |
| GGGCAGCAAUAUUACGCCCA | -2.18 ± 0.48 | -1.26 ± 0.32 |
| AGGCAGCAAUAUUACGUCAU | -1.87 ± 0.058 | -1.1 ± 0.077 |
| UUAGAGCAAUAUUACGGUCA | -1.7 ± 0.15 | -1.34 ± 0.14 |
| GAAAAGCAAUAUUACGAAGG | -3.27 ± 0.24 | -3.01 ± 0.37 |
| UCCAAGCAAUAUUACGGUUA | -0.451 ± 0.066 | 0.0448 ± 0.068 |
| AUGUAGCAAUAUUACGUGUA | -2.47 ± 0.11 | -1.74 ± 0.089 |
| UAAUAGCAAUAUUACGUAGG | -2.37 ± 0.13 | -1.06 ± 0.14 |
| ACGAAGCAAUAUUACGCGCA | -0.419 ± 0.068 | 0.542 ± 0.1 |

| Sequence | self-splicing fitness (ln) (30 °C) | self-splicing fitness (ln) (37 °C) |
| --- | --- | --- |
| AUUAAGCAAUAUUACGGUCU | -0.183 ± 0.15 | 0.0171 ± 0.15 |
| GCGGAGCAAUAUUACGGGGU | -1.55 ± 0.23 | – |
| GCCUAGCAAUAUUACGCAAA | -0.846 ± 0.14 | -1.41 ± 0.16 |
| GUGUAGCAAUAUUACGCAUC | – | -0.977 ± 0.26 |
| AUGUAGCAAUAUUACGAUUG | -1.21 ± 0.15 | -3.05 ± 0.38 |
| AGUUAGCAAUAUUACGGACG | -0.568 ± 0.16 | 0.616 ± 0.18 |
| AAACAGCAAUAUUACGGUUA | -0.306 ± 0.056 | -0.167 ± 0.066 |
| ACUGAGCAAUAUUACGCUCA | -3.23 ± 0.24 | -1.87 ± 0.18 |
| UGGUAGCAAUAUUACGGGAA | -2.02 ± 0.22 | -1.6 ± 0.19 |
| CUUGAGCAAUAUUACGUAUG | -1.21 ± 0.1 | -1.35 ± 0.14 |
| UCAAAGCAAUAUUACGGCAU | -2.94 ± 0.14 | -2.75 ± 0.14 |
| GCAAAGCAAUAUUACGAGCA | -2.04 ± 0.095 | -0.394 ± 0.08 |
| GCUAAGCAAUAUUACGUCCA | -1.94 ± 0.32 | -0.684 ± 0.23 |
| UGUCAGCAAUAUUACGUAUU | -1.77 ± 0.071 | -0.932 ± 0.081 |
| AGCUAGCAAUAUUACGUUCG | -2.57 ± 0.14 | -2.41 ± 0.23 |
| UGGAAGCAAUAUUACGUUUG | -0.722 ± 0.082 | -0.645 ± 0.13 |
| CUCAAGCAAUAUUACGUAAA | -3.37 ± 0.18 | -2.48 ± 0.25 |
| UAUCAGCAAUAUUACGGGGU | -3.6 ± 0.2 | -2.48 ± 0.17 |
| GAUCAGCAAUAUUACGGGGG | -3.25 ± 0.18 | -2.51 ± 0.18 |
| AUCUAGCAAUAUUACGGCUU | -0.0659 ± 0.1 | 0.305 ± 0.12 |
| UAACAGCAAUAUUACGACGG | -1.27 ± 0.085 | -0.26 ± 0.11 |
| CCAUAGCAAUAUUACGCAGA | -2.96 ± 0.21 | -2.16 ± 0.24 |
| AAUCAGCAAUAUUACGCACA | -0.245 ± 0.063 | 0.0601 ± 0.085 |
| UAGUAGCAAUAUUACGAGAA | – | -1.76 ± 0.43 |

From the supplement of paper PMC7877785
